Experimental data: PMC2289905

Legend:
[1] = molecular target: beta 1-LAP deletion mutant L40-50 (simian); assay: nonreducing SDS-PAGE with immunoblot
[2] = molecular target: radioiodinated mature transforming growth factor beta 1 (UniProt P01137); assay: cross-linking
[3] = molecular target: beta 1-LAP deletion mutant L50-81 (simian); assay: nonreducing SDS-PAGE with immunoblot
[4] = molecular target: beta 1-LAP deletion mutant L50-85 (simian); assay: nonreducing SDS-PAGE with immunoblot
[5] = molecular target: beta 1-LAP deletion mutant L85-110 (simian); assay: nonreducing SDS-PAGE with immunoblot
[6] = molecular target: mature TGFbeta1 secreted by COS-1 cells transfected with wild-type pre-pro-TGFbeta1 (simian); assay: nonreducing SDS-PAGE with immunoblot

radioiodinated mature transforming growth factor beta 1, sequence (P01137 279-390): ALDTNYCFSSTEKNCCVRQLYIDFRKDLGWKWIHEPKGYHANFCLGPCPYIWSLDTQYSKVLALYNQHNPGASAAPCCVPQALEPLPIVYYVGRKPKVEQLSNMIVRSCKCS
beta 1-latency-associated peptide (pro domain of TGFbeta1 expressed independently), wild type (domain or fragment), sequence (P09533 30-390): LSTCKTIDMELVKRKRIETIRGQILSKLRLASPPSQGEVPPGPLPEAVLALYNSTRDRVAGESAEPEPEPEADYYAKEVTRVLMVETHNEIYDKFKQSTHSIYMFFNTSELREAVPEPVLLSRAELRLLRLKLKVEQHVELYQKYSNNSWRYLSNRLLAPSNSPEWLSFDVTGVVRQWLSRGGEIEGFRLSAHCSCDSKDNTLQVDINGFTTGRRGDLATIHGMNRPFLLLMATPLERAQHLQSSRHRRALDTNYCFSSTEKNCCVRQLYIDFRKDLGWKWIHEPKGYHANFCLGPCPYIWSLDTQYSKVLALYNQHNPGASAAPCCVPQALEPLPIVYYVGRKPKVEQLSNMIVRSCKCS

“beta 1-LAP deletion mutant L40-50 (domain or fragment)” gave a stoichiometry N [1] of 2 and a cross-linking (% of wild-type) (% of wild-type) [2] of 10.
In the case of “beta 1-LAP deletion mutant L50-81 (domain or fragment)”, the stoichiometry N [3] is reported as 2.
Substance “beta 1-LAP deletion mutant L50-85 (domain or fragment)” has a stoichiometry N [4] of 2.
“beta 1-LAP deletion mutant L85-110 (domain or fragment)” showed a stoichiometry N [5] of 2 and a cross-linking (% of wild-type) (% of wild-type) [2] of 12.
“beta 1-latency-associated peptide (pro domain of TGFbeta1 expressed independently), wild type (domain or fragment)” showed a cross-linking (% of wild-type) (% of wild-type) [2] of 100.
Substance “mature TGFbeta1 secreted by COS-1 cells transfected with wild-type pre-pro-TGFbeta1 (ligand)” has a stoichiometry N [6] of 2.
